Test results from patent publication US20240092909A1 (IBIO, published 2024).
Residue numbers refer to the chain shown, from its start.

B1: 7 (antibody, V domains shown)
VH: EVQLLESGGGLVQPGGSLRLSCAASGFPFGNYLMNWVRQAPGKGLEWVSVISGGGVSTYYADSVKGRFTISRDNSKNTLYLQMNSLRAEDTAVYYCARGPSSWPAFDVWGQGTLVTVSS
VL: DIQMTQSPSSLSASVGDRVTITCRASETISNFLNWYQQKPGKAPKLLIYTTSSLQRGVPSRFSGSGSGTDFTLTISSLQPEDFATYYCQQSYSVPWTFGGGTKVEIK
notes: From phage panning of a naive antibody library; also called antibody 7; clone 7
B2: 1-C09-3 (antibody, V domains shown)
VH: QVQLQQPGAELVRPGTSVKLSCKASGYTFTSYWMHWVKERPGQGLEWIGVIDPSDSYTNYNQKFKDKATLTVDTSSSTAYMQLSSLTSEDSAVYYCARSPFDYWGQGTTLTVSS
VL: DIQMTQSQKFMSTSVGDRVSVTCKASQNVGTNVAWYQQKPGQSPKALIYSASYRYSGVPDRFIGSGSGTDFTLTIRNVQSEDLAEYFCQQHNSYPFTFGGGTKLEIK
notes: From the in vitro scFv library of immunised mice
B3: 1-F09-1 (antibody, V domains shown)
VH: B2 VH with L11V, R13M, T16A, E39Q, N59Q, D66G
VL: B2 VL with T5N, Q8H, V21I, N28D, G30S, N32A, Y53N, I106M
notes: as for B2
B4: 1-F12-1 (antibody, V domains shown)
VH: B2 VH with Q1E, E39Q, N59Q, D66G, L110V
VL: DIVMTQSHKFMSTSVGDRVSITCKASQDVSTAVAWYQQKPGQSPKALIYSASYRYSGVPDRFTGSGSGTDFTLTISNVQAEDLAVYYCHQHNTYPFTFGGGTKLEIK
notes: as for B2
B5: 1-H01-1 (antibody, V domains shown)
VH: B2 VH with R13K, T16A, L20M, E39Q, D55N, N59I, D66G
VL: B2 VL with I2V, Q3V, I63T
notes: From the in vitro scFv library of immunised mice; also called clone 1-H01-1
B6: 2-D11-1 (antibody, V domains shown)
VH: B2 VH with Q1E, S21A, T30N, S31T, K38N, E39Q, N59Q, D66G
VL: B2 VL with I2V, R76S
notes: as for B2
B7: 1-C09-1 (antibody, V domains shown)
VH: B2 VH with A9T, L20M, E39Q, N59Q, D66G
VL: B2 VL with Q3V, V58I, I63T, R76S, E85D, Y86F, H91Y
notes: as for B2
B8: 27A5 (antibody, V domains shown)
VH: QVTLKESGPGILQPSQTLSLTCSFSGFSLSTFGMGVGWIRQPSGKGLEWLAHIWWDADKYSTPALKSRLTISKDTSKNQVFLKIANVDTADTATYYCARIGRNYYFDYWGQGTTLTVSS
VL: DIVMTQSPSSLAVSVGEKVTLTCKSSQTLLDSTNQKNYLAWYQQIPGQSPKLLIYWASTRESGVPDRFTGSGSGTDFTLTISSVKAEDLTVYYCQQYYTYPLTFGAGTKLELK
notes: Antibody from a monoclonal hybridoma of immunised BALB/c mice
B9: E2-B5-7_201 (antibody, V domains shown)
VH: EVQLVQSGAEVKKPGATVKISCKASGYSLSDHYMHWVQQAPGKGLEWMGRIDPHSGATKYDPKFQGRVTITADTSTDTAYMELSSLRSEDTAVYYCARSGPVYHYGSSYVMDYWGQGTTVTVSS
VL: DIVMTQSPDSLAVSLGERATINCKSGQSVFYSSNNKNYLAWYQQKPGQPPKLLIYWASTRESGVPDRFSGSGSGTDFTLTISSLQAEDVAVYYCQQYLYSWTFGQGTKLEIK
B10: D4-A7-7_201 (antibody, V domains shown)
VH: B9 VH with S28I, S30T, A57G, T58I
VL: B9 VL
notes: also called clone D4-A7-7_201
B11: E2-B5-6_201 (antibody, V domains shown)
VH: B9 VH with Y103H, H104Y
VL: B9 VL
B12: E2-B5-7_211 (antibody, V domains shown)
VH: B9 VH
VL: B9 VL with S58D
B13: 43 (antibody, V domains shown)
VH: EVQLLESGGGLVQPGGSLRLSCAASGFTFSIHPMTWVRQAPGKGLEWVSLISTGGGSTYYADSVKGRFTISRDNSKNTLYLQMNSLRAEDTAVYYCASASVLGSGGYWSPGMDYWGQGTLVTVSS
VL: DIQMTQSPSSLSASVGDRVTITCRASQSIDRFLNWYQQKPGKAPKLLIYGASNLPSGVPSRFSGSGSGTDFTLTISSLQPEDFATYYCQQSFSIPWTFGGGTKVEIK
notes: From phage panning of a naive antibody library; also called antibody 43; clone 43

What was measured:
[1] = target: T1, Programmed cell death protein 1 (PD-1), human (human, UniProt Q15116 25-167, limits assumed); assay: SPR on PD-1, sensorgrams at three concentrations with fit
T1 construct: also called full-length PD-1

[2] = target: T1, Programmed cell death protein 1 (PD-1), …; assay: cell-based or functional assay
[3] = target: T1, Programmed cell death protein 1 (PD-1), …; assay: SPR affinity measurement, response in nm, four traces
[4] = target: T1, Programmed cell death protein 1 (PD-1), …; assay: SPR avidity, column 'Avidity (nM)' of the drawn table
[5] = target: T1, Programmed cell death protein 1 (PD-1), …; assay: SPR affinity, column 'Affinity (nM)' of the drawn table
[6] = target: T1, Programmed cell death protein 1 (PD-1), …; assay: SPR avidity measurement (mimic cell surface PD-1 clusters), response in nm, three traces
[7] = target: T1, Programmed cell death protein 1 (PD-1), …; assay: SPR, PD-1 avidity (FIG. 2C); SPR avidity format, FIG. 2C
[8] = target: T1, Programmed cell death protein 1 (PD-1), …; assay: SPR, PD-1 binding (FIG. 2B); SPR affinity format, FIG. 2B
[9] = target: T1, Programmed cell death protein 1 (PD-1), …; assay: SPR on PD-1, sensorgrams at five concentrations with fit

T1 sequence (Q15116 25-167 limits assumed): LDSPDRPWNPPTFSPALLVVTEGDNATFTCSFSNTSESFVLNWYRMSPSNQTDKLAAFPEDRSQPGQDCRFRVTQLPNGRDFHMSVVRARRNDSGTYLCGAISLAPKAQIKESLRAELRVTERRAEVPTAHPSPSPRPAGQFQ

Binder | PD-1 agonism EC50, PathHunter Checkpoint Signaling Assay [2] [nM] | Kd [3] [nM] | Kd [4] [nM] | Kd [5] [nM] | Kd [6] [nM] | Kd [9] [nM] | further results
B1 |  |  |  |  |  |  | Kd [1]: 16 nM
B2 | 1.1 | 84 | 0.77 | 84 | 0.77 |  | 
B3 | 1.1 | 13 | 0.46 | 13 | 0.46 |  | 
B4 | 1.6 | 21 | 0.98 | 21 | 0.98 |  | 
B5 | 0.9 | 78 | 0.44 | 78 | 0.44 |  | 
B6 | 1.2 | 15 | 0.96 | 15 | 0.96 |  | 
B7 | 1.4 | 150 | 3.7 | 150 | 3.7 |  | 
B8 |  |  |  |  |  |  | Kd [7]: 0.005 nM; Kd [8]: 55 nM
B9 |  |  |  |  |  | 1.2 | 
B10 |  |  |  |  |  | 1.1 | 
B11 |  |  |  |  |  | 0.71 | 
B12 |  |  |  |  |  | 0.695 | 
B13 |  |  |  |  |  |  | Kd [1]: 6.3 nM
